The results in this text go back to patent publication US5580958.

In this data set the target is PU.1 (PU pECE) (Mus musculus) (UniProt P17433). Description: cell_activity. To be noted: 8 copies upstream of TK-CAT in HeLa; 1 copy 3.5-3.6 fold, 4 copies 3.9-4.3 fold.

The substance PU-1 (SV40 enhancer PU box) registered an activity of 18.3 fold.
